B1: I-1010 phage (peptide displayed phage from the D12 library) (peptide, not shown: large carriers)
peptide: WHLSDLWQNAWH
notes: tested as phage particles, 1x10^10 PFU per well
B2: I-1010 phage in which the 3rd L was substituted with M and the 8th Q was substituted with A (peptide, not shown: large carriers)
peptide: WHMSDLWANAWH
notes: Phage with two substituted amino acids; also called L3M/Q8A
B3: I-1010 phage in which the 1st W was substituted with F and the 8th Q was substituted with A (peptide, not shown: large carriers)
peptide: FHLSDLWANAWH
notes: Phage with two substituted amino acids; also called W1F/Q8A

The text below walks through data of US20150337012A1 (HOYA, published 2015).

Where no end group is shown, it is not given here. The star is where a group is joined. FITC = O=C1OC2(c3ccc(O)cc3Oc3cc(O)ccc32)c2ccc(NC(=S)*)cc21; Ahx = NCCCCCC(=O)O

For the first assay, the target named is T1, recombinant human EGFR/Fc chimera (rhEGFR, R&D Systems) (human, UniProt P00533 25-645).
T1 construct: Bought reagent; Coated on the plate at 1 ug/well; also called genetically modified EGFR protein; not shown: human IgG1 Fc moiety of the chimera
Description: phage binding to plate-coated protein, titer ratio. The procedure: After removal of the blocking buffer, the wells were washed with 200 μl of 0.5% TBST being the washing solution three times and thereto was finally added 100 μl of 0.5% TBST. […] In the reaction, the mixture was gently shaken at room temperature for 1 hour. The reaction solution was removed and the wells were washed with 200 μl of 0.5% TBST ten times, 100 μl of 0.2 M glycine-HCl (pH 2.2) was added to the wells and stirred by pipetting, thereafter gently shaking at room temperature for 10 minutes. The eluate was collected to a microtube from the wells and added with 15 μl of 1 M Tris-HCl (pH 9.1) to be neutralized and a target binding phage solution was thus obtained. The binding ability of the collected phage was examined by a measurement of a titer.
A rhEGFR that is a target protein, a recombinant human ErbB2(rhErbB2, PROSPEC) as a HER2 protein belonging to the ErbB family same as an EGFR, are combinant human IGF-1R, CF(rhIGF-1R, R&D Systems) as an IGF-1R protein that is one of extracellular proteins were added to a 96-well microplate to be 1 μg/well, and stood still at 4° C. overnight to be thus formed into a solid phase. A protein solution was removed, 300 μl of a blocking buffer was added and the mixture was incubated at 37° C. for 1 hour to thus block the wells. After removal of the blocking buffer, the wells were washed three times with 200 μl of 0.5% TBST washing solution, and finally 100 μl of 0.5% TBST was added thereto. […] In the reaction, the mixture was gently shaken at room temperature for 1 hour. The reaction solution was removed, the wells were washed with 200 μl of 0.5% TEST ten times, and 100 μl of 0.2 M glycine-HCl (pH 2.2) was then added to the wells and stirred by pipetting, thereafter gently shaking at room temperature for 10 minutes. The eluate was collected to a microtube from the wells and added with 15 μl of 1 M Tris-HCl (pH 9.1) to be neutralized and a target binding phage solution was thus obtained.
Regarding LHQSEWMYVDIH (peptide, not shown: large carriers, tested as phage particles) [I-1015 phage (peptide displayed phage from the D12 library)], the “fold binding to rhEGFR over binding to BSA” value (“fold binding … to BSA” for short) was 14000 times, the “fold binding to rhEGFR over binding to rhErbB2” value (“fold binding … to rhErbB2” below) was 4740 times, the “fold binding to rhEGFR over binding to rhIGF-1R” value (shortened to “fold binding … to rhIGF-1R”) came out at 7710 times and the “fold binding to rhEGFR over binding to rhIgG1” value (from here on “fold binding … to rhIgG1”) was found to be 19000 times. For B1, the “fold binding … to BSA” value came out at 3810 times, the “fold binding … to rhErbB2” value came to 1760 times, the “fold binding … to rhIGF-1R” value came to 2830 times and the “fold binding … to rhIgG1” value was 1660 times. In the case of FHDWLPEVSPPD (peptide, not shown: large carriers, tested as phage particles) [I-1012 phage (peptide displayed phage from the D12 library)], the “fold binding … to BSA” value came out at 3100 times, the “fold binding … to rhErbB2” value came to 1580 times, the “fold binding … to rhIGF-1R” value stood at 4340 times and the “fold binding … to rhIgG1” value is 3420 times.

The target of the next assay is T1, recombinant human EGFR/Fc chimera …. The experiment in a line: substituted phage binding to plate-coated rhEGFR, titer ratio. The procedure: A rhEGFR that is a target protein was added to a 96-well microplate to be 1 μg/well, and stood still at 4° C. overnight to be thus formed into a solid phase. A protein solution was removed, 300 μl of a blocking buffer (5 mg/mL BSA/TBS) was added and the mixture was incubated at 37° C. for 1 hour to thus block the wells. After removal of the blocking buffer, the wells were washed with 200 μl of 0.5% TBST (0.5% Tween20/TBS) being the washing solution three times and thereto was finally added 100 μl of 0.5% TEST. An amplification phage solution was added to the above described wells to have 1×10¹⁰ PFU and mixed by pipetting. In the reaction, the mixture was gently shaken at room temperature for 1 hour. The reaction solution was removed and the wells were washed with 200 μl of 0.5% TBST ten times, 100 μl of 0.2 M glycine-HCl (pH 2.2) was then added to the wells and stirred by pipetting, thereafter gently shaking at room temperature for 10 minutes. The eluate was collected to a microtube from the wells and added with 15 μl of 1 M Tris-HCl (pH 9.1) to be neutralized and a target binding phage solution was thus obtained. The binding ability of the collected phage was examined by a measurement of a titer.
As to FHLSDLWQNAWH (peptide, not shown: large carriers, also called W1F) [I-1010 amino acid substituted phage, 1st W substituted with F], the binding result is recorded as “binds”. Still for that read-out and setting: as for WHLSDLFQNAWH (peptide, not shown: large carriers, also called W7F) [I-1010 amino acid substituted phage, 7th W substituted with F], the entry is “binds”.

For the molecule WHLSDLYQNAWH (peptide, not shown: large carriers, also called W7Y) [I-1010 amino acid substituted phage, 7th W substituted with Y], the binding result is “binds”. As for B2, the binding result was “binds”. For the molecule WHISDLWQNAWH (peptide, not shown: large carriers, also called L3I) [I-1010 amino acid substituted phage, 3rd L substituted with I], the binding result is “binds”. Turning to WHMSDLWQNAWH (peptide, not shown: large carriers, also called L3M) [I-1010 amino acid substituted phage, 3rd L substituted with M], the binding result is on record as “binds”. Take B3: the binding result is recorded as “binds”. For WHVSDLWQNAWH (peptide, not shown: large carriers, also called L3V) [I-1010 amino acid substituted phage, 3rd L substituted with V], the binding result is recorded as “binds”.

For a further assay, the target named is T2, EGFR expressed by A-431 cells (human, UniProt P00533 25-1210).
T2 construct: whole, on cells; also called EGFR expressed by cells
The experiment in a line: confocal fluorescence microscopy of A-431 cells with 100 µM FITC-labeled peptide.
Description: A-431 cells were inoculated in a glass bottom dish to be 20×10⁴ cells/dish and MCF7 cells were inoculated in a glass bottom dish to be 75×10⁴ cells/dish, and cultured at 37° C. in the condition of CO₂ for 24 hours. After culturing each kind of the cells for a specified time, EGF was added to have a concentration of 100 ng/mL and the mixture was cultured for 6 days. Thereafter, the culture solution in the dish was removed and washed with 1000 μL of a growth medium at 37° C. ten times. […] A staining fluid was removed and washed with 1 mL of a growth medium at 37° C. three times and thereto was finally added 1 mL of the medium. For observation, fluorescent observation was carried out by irradiating an exciting light laser with a wavelength of 488 nm using a confocal microscope (Leica SP2).
For the molecule {FITC-Ahx}-WHLSDLWQNAWH [Pep055-F (FITC-labeled Pep055)], the binding result is on record as “binds”.

For the next assay, the target named is T2, EGFR expressed by A-431 cells. Description: phage binding to A-431 cells at 4 °C, titer ratio corrected for the number of collected cells.
Description: A-431 cells were inoculated in a 6-well culture plate at 40×10⁴ cells/well and cultured at 37° C. in the condition of 5% CO₂ overnight. The plate was incubated at 4° C. for 30 minutes and a medium in each well was removed, and treated by washing with 1 mL of 1% BSA/PBS twice. […] After the reaction, the reaction solution was removed and washed with 1 mL of 1% BSA/PBS ten times to remove non-binding phages. Thereto was added 100 μl of a 0.05% trypsin/0.53 mM EDTA solution and the reaction solution was incubated at 37° C. for about 10 minutes and added with 900 μl of a growth medium to prepare a collected phage solution. A titer of each collected phage solution was measured.
For B1, the “fold titer ratio over that of the M13KE phage” value stood at 45 times.
